# Experimental data as given in patent publication US20040197325A1 (PDL BIOPHARMA, published 2004).
# B1: GPR64-18 (antibody, V domains shown)
# VH: QVSLKESGPGILQPSQTLSLTCSFSGFSLSTSGMGVSWIRQPSGKGLEWLAHIYWDDDKRYNPSLKSRLTISKDTSSNLVFLKITSVDTADTATYYCARREVRRDYYAMDYWGQGTSVTVSS
# VL: SIVMTQTPKFLLVSAGDRITIACRASQSVSNDVAWYQQKPGQSPKLLINYTSNRYTGVPDRFTGSGYGTDFTFTISTVQAEDLAVYFCQQAYSSPWTFGGGTKLEIK
# notes: Mouse monoclonal antibody raised against GPR64-Fc; also called GPR64-18 antibody
# Experiments:
# [1] = target: T1, GPR64 protein (SEQ ID NO:2) (human, UniProt Q8IZP9 38-1017); test: competitive FACS on H460 cells, confirmed by Biacore
# T1 construct: Endogenous GPR64 on human tumor cells (NCI-H460) or in tissue sections; also called Ov1; HE6
# Description: Epitope mapping was performed by competitive FACS assay. Briefly, H460 cells were incubated with 25 ug/ml unlabeled antibody for 1 hr on ice, at which time various amounts of FITC labeled antibody was added. After 30 additional minutes, cells were washed one time and fluorescence was measured by flow cytometry. All data was confirmed by Biacore.
# [2] = target: T2, GPR64 protein (SEQ ID NO:2) (UniProt Q8IZP9 38-1017); test: FACS
# T2 chain: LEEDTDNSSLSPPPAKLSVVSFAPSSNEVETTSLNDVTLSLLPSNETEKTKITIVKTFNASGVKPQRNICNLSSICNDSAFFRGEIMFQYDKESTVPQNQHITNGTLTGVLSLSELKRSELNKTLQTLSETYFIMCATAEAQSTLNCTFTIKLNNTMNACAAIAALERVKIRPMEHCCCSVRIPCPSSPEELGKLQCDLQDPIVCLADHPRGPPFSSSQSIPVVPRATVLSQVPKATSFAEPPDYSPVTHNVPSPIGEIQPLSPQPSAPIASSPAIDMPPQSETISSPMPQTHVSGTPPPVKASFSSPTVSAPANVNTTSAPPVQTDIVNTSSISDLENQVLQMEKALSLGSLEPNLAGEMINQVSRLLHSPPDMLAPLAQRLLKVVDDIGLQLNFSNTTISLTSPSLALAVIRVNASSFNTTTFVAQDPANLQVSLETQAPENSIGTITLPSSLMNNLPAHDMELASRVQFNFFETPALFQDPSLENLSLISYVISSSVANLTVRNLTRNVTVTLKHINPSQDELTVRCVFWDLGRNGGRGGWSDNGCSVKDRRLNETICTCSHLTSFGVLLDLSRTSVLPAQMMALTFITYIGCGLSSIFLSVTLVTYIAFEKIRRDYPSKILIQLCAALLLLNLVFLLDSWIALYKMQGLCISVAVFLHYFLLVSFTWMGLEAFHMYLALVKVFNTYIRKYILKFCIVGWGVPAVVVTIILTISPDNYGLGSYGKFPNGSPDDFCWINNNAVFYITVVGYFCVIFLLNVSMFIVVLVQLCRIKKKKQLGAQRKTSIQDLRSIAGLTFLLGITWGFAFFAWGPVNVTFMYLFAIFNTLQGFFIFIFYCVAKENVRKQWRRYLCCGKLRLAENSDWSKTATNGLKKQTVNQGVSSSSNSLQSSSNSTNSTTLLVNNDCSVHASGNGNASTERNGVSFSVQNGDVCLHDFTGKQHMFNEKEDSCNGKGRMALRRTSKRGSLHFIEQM
# [3] = target: T3, human GPR64-Fc fusion protein (human, UniProt Q8IZP9 38-591); test: affinity screen of Example 4 (Biacore/FACS); form of the target not restated
# T3 construct: Immunogen, and the analyte in the Biacore kinetics
binder,measurement,setting,value
B1,binding result,[1],binds
same,EC50,[2],~4 nM
same,binding result,[3],binds
